From patent US20240368354A1, “STEROID ACID-BASED HYDROGELS” (priority 2021, published 2024)
Where a SMILES comes first, the peptide text is derived from it. Bridges are numbered along the chain shown (N, C = ends). Roman numbers before positions name the chains, in order. Where no end group is shown, it is not given here. The star is where a group is joined. Chenodeoxycholyl = C[C@H](CCC(=O)*)[C@H]1CC[C@H]2[C@@H]3[C@H](O)C[C@@H]4C[C@H](O)CC[C@]4(C)[C@H]3CC[C@]12C; Cholyl = C[C@H](CCC(=O)*)[C@H]1CC[C@H]2[C@@H]3[C@H](O)C[C@@H]4C[C@H](O)CC[C@]4(C)[C@H]3C[C@H](O)[C@]12C

Columns and labels:
[1] = Hydrogel formation of steroid acid-peptide monomer conjugates upon resuspension in solvent; type: physicochemical; settings: for hydrogel formation: 6.67 mg/ml, cell medium (complete DMEM with human cells), 2 hours of incubation
Procedure: Specific hydrogel formation was conducted by resuspending the powder of each steroid acid-peptide monomer or dimer conjugate in phosphate buffered saline (PBS) 1X (pH 7.4), pure water, complete cell medium (DMEM), DMSO, or alcohol:water mixtuLes (e.g., methanol:water (40:60)) at room temperature or 37° C. at a concentration between 6-30 mg/mL.
Hydrogel formation was evaluated upon dissolution of the different peptide or steroid acid-peptide conjugates described in FIG. 1 in different solvents. […] Hydrogel structure (soft vs. hard) and color/clarity (translucent vs. opaque) varied among the different conditions. […] At concentrations lower than 10 mg/mL, all steroid acid-hnRNPA1 NLS conjugates tested formed liquid droplets in PBS at room temperature. Monomers of GWG-SV40NLS conjugated to steroid acids were also shown to form hydrogels (data not shown).

[2] = system: JIMT1 cells (breast cancer cell line); experiment: Cell cytotoxicity assay (PrestoBlue); type: cell-based; settings: for toxicity of dimer hydrogels compared with monomers: cells treated three days, PrestoBlue, dimers versus monomers
Procedure: 5000 JIMT1 cells (breast cancer cell line) per well (96-well plate) were plated. After one day, cells were treated with the different steroid acid-peptide conjugates or hydrogels for three days. Cell survival was determined by PrestoBlue™ following the manufacturer's protocol.
Hydrogels are commonly used for drug delivery and in vivo applications, and therefore assessing their safety profiles is highly pertinent. Cytotoxicity of hydrogels was evaluated via a cytotoxicity assay by incubating cells with hydrogels formed by monomers or steroid acid-peptide conjugates, as described in Example 1.

[3] = monomers, room temperature and 37° C.

CA-NLS1 RPS17: cholic acid conjugated to NLS1 RPS17 peptide (SEQ ID NO: 9) (MGRVRTKTVKKAAGG; also: cholic acid conjugate, site not given here)
hydrogel formation in monomer form [1]: not observed to form a hydrogel

CSCC[C@H](NC(=O)[C@@H]1CCCN1C(=O)CNC(=O)[C@H](Cc1ccccc1)NC(=O)[C@H](CC(N)=O)NC(=O)[C@H](CO)NC(=O)[C@H](CS)NC(=O)CC[C@@H](C)[C@H]1CC[C@H]2[C@@H]3[C@H](O)C[C@@H]4C[C@H](O)CC[C@]4(C)[C@H]3CC[C@]12C)C(=O)N[C@@H](CCCCN)C(=O)NCC(=O)NCC(=O)N[C@@H](CC(N)=O)C(=O)N[C@@H](Cc1ccccc1)C(=O)NCC(=O)NCC(=O)N[C@@H](CCCNC(=N)N)C(=O)N[C@@H](CO)C(=O)N[C@@H](CO)C(=O)NCC(=O)N1CCC[C@H]1C(=O)N[C@@H](Cc1ccc(O)cc1)C(N)=O [CDCA-hnRNPA1 M9 NLS] (Chenodeoxycholyl-CSNFGPMKGGNFGGRSSGPY-NH2)
concentrations at which viability of cells was reduced ([2]; JIMT1 cells, three days treatment, hydrogels formed by monomers): higher than 10 μg/mL

CA-Melittin: cholic acid conjugated to the peptide melittin (SEQ ID NO: 16)
hydrogel formation in monomer form [1]: not able to form a hydrogel

CSCC[C@H](NC(=O)[C@H](CSSC[C@H](NC(=O)CC[C@@H](C)[C@H]1CC[C@H]2[C@@H]3[C@H](O)C[C@@H]4C[C@H](O)CC[C@]4(C)[C@H]3C[C@H](O)[C@]12C)C(=O)N[C@@H](CCSC)C(=O)NCC(=O)N[C@@H](CCCNC(=N)N)C(=O)N[C@H](C(=O)N[C@@H](CCCNC(=N)N)C(=O)N[C@H](C(=O)N[C@@H](CCCCN)C(=O)N[C@H](C(=O)N[C@H](C(=O)N[C@@H](CCCCN)C(=O)N[C@@H](CCCCN)C(=O)N[C@@H](C)C(=O)N[C@@H](C)C(=O)NCC(=O)NCC(N)=O)C(C)C)[C@@H](C)O)[C@@H](C)O)C(C)C)NC(=O)CC[C@@H](C)[C@H]1CC[C@H]2[C@@H]3[C@H](O)C[C@@H]4C[C@H](O)CC[C@]4(C)[C@H]3C[C@H](O)[C@]12C)C(=O)NCC(=O)N[C@@H](CCCNC(=N)N)C(=O)N[C@H](C(=O)N[C@@H](CCCNC(=N)N)C(=O)N[C@H](C(=O)N[C@@H](CCCCN)C(=O)N[C@H](C(=O)N[C@H](C(=O)N[C@@H](CCCCN)C(=O)N[C@@H](CCCCN)C(=O)N[C@@H](C)C(=O)N[C@@H](C)C(=O)NCC(=O)NCC(N)=O)C(C)C)[C@@H](C)O)[C@@H](C)O)C(C)C [dimerized CA-NLS1 RPS17] (I: Cholyl-CMGRVRTKTVKKAAGG-NH2 / II: Cholyl-CMGRVRTKTVKKAAGG-NH2; disulfide I:1-II:1)
toxicity of dimer hydrogels compared with monomers [2]: significantly less toxic

CC[C@H](C)[C@H](NC(=O)CNC(=O)[C@H](CSSC[C@H](NC(=O)CC[C@@H](C)[C@H]1CC[C@H]2[C@@H]3[C@H](O)C[C@@H]4C[C@H](O)CC[C@]4(C)[C@H]3C[C@H](O)[C@]12C)C(=O)NCC(=O)N[C@H](C(=O)NCC(=O)N[C@@H](C)C(=O)N[C@H](C(=O)N[C@@H](CC(C)C)C(=O)N[C@@H](CCCCN)C(=O)N[C@H](C(=O)N[C@@H](CC(C)C)C(=O)N[C@H](C(=O)N[C@H](C(=O)NCC(=O)N[C@@H](CC(C)C)C(=O)N1CCC[C@H]1C(=O)N[C@@H](C)C(=O)N[C@@H](CC(C)C)C(=O)N[C@H](C(=O)N[C@@H](CO)C(=O)N[C@@H](Cc1c[nH]c2ccccc12)C(=O)N[C@H](C(=O)N[C@@H](CCCCN)C(=O)N[C@@H](CCCNC(=N)N)C(=O)N[C@@H](CCCCN)C(=O)N[C@@H](CCCNC(=N)N)C(=O)N[C@@H](CCC(N)=O)C(=O)N[C@@H](CCC(N)=O)C(N)=O)[C@@H](C)CC)[C@@H](C)CC)[C@@H](C)O)[C@@H](C)O)C(C)C)C(C)C)[C@@H](C)CC)NC(=O)CC[C@@H](C)[C@H]1CC[C@H]2[C@@H]3[C@H](O)C[C@@H]4C[C@H](O)CC[C@]4(C)[C@H]3C[C@H](O)[C@]12C)C(=O)NCC(=O)N[C@@H](C)C(=O)N[C@H](C(=O)N[C@@H](CC(C)C)C(=O)N[C@@H](CCCCN)C(=O)N[C@H](C(=O)N[C@@H](CC(C)C)C(=O)N[C@H](C(=O)N[C@H](C(=O)NCC(=O)N[C@@H](CC(C)C)C(=O)N1CCC[C@H]1C(=O)N[C@@H](C)C(=O)N[C@@H](CC(C)C)C(=O)N[C@H](C(=O)N[C@@H](CO)C(=O)N[C@@H](Cc1c[nH]c2ccccc12)C(=O)N[C@H](C(=O)N[C@@H](CCCCN)C(=O)N[C@@H](CCCNC(=N)N)C(=O)N[C@@H](CCCCN)C(=O)N[C@@H](CCCNC(=N)N)C(=O)N[C@@H](CCC(N)=O)C(=O)N[C@@H](CCC(N)=O)C(N)=O)[C@@H](C)CC)[C@@H](C)CC)[C@@H](C)O)[C@@H](C)O)C(C)C)C(C)C [dimerized CA-Melittin]
toxicity of dimer hydrogels compared with monomers [2]: significantly less toxic

GUDCA-hnRNPA1 NLS: glycoursodeoxycholic acid (GUDCA) conjugated to hnRNPA1 M9 NLS peptide (SEQ ID NO: 4) (SNFGPMKGGNFGGRSSGPY; also: glycoursodeoxycholic acid (GUDCA) conjugate, site not given here)
incubation time after which a hydrogel formed ([1]; 20 mg/ml in pure water, room temperature): 1 to 3 h
hydrogel formation [1, 3]: formed a hydrogel

CSCC[C@H](NC(=O)[C@@H]1CCCN1C(=O)CNC(=O)[C@H](Cc1ccccc1)NC(=O)[C@H](CC(N)=O)NC(=O)[C@H](CO)NC(=O)[C@H](CSSC[C@H](NC(=O)CC[C@@H](C)[C@H]1CC[C@H]2[C@@H]3[C@H](O)C[C@@H]4C[C@H](O)CC[C@]4(C)[C@H]3CC[C@]12C)C(=O)N[C@@H](CO)C(=O)N[C@@H](CC(N)=O)C(=O)N[C@@H](Cc1ccccc1)C(=O)NCC(=O)N1CCC[C@H]1C(=O)N[C@@H](CCSC)C(=O)N[C@@H](CCCCN)C(=O)NCC(=O)NCC(=O)N[C@@H](CC(N)=O)C(=O)N[C@@H](Cc1ccccc1)C(=O)NCC(=O)NCC(=O)N[C@@H](CCCNC(=N)N)C(=O)N[C@@H](CO)C(=O)N[C@@H](CO)C(=O)NCC(=O)N1CCC[C@H]1C(=O)N[C@@H](Cc1ccc(O)cc1)C(N)=O)NC(=O)CC[C@@H](C)[C@H]1CC[C@H]2[C@@H]3[C@H](O)C[C@@H]4C[C@H](O)CC[C@]4(C)[C@H]3CC[C@]12C)C(=O)N[C@@H](CCCCN)C(=O)NCC(=O)NCC(=O)N[C@@H](CC(N)=O)C(=O)N[C@@H](Cc1ccccc1)C(=O)NCC(=O)NCC(=O)N[C@@H](CCCNC(=N)N)C(=O)N[C@@H](CO)C(=O)N[C@@H](CO)C(=O)NCC(=O)N1CCC[C@H]1C(=O)N[C@@H](Cc1ccc(O)cc1)C(N)=O [Dimerized CDCA-hnRNPA1 M9 NLS] (I: Chenodeoxycholyl-CSNFGPMKGGNFGGRSSGPY-NH2 / II: Chenodeoxycholyl-CSNFGPMKGGNFGGRSSGPY-NH2; disulfide I:1-II:1)
cell viability ([2]; JIMT1 cells, three days treatment, all concentrations tested up to 100 μg/mL): Viability was maintained

GDCA-hnRNPA1 NLS: glycodeoxycholic acid (GDCA) conjugated to hnRNPA1 M9 NLS peptide (SEQ ID NO: 4) (SNFGPMKGGNFGGRSSGPY; also: glycodeoxycholic acid (GDCA) conjugate, site not given here)
hydrogel formation [1, 3]: formed a hydrogel

LCA-hnRNPA1 NLS: lithocholic acid (LCA) conjugated to hnRNPA1 M9 NLS peptide (SEQ ID NO: 4) (SNFGPMKGGNFGGRSSGPY; also: lithocholic acid (LCA) conjugate, site not given here)
hydrogel formation following resuspension ([1]; monomers, 25 mg/mL in PBS 1X (pH 7.4), room temperature): a hydrogel spontaneously formed within a matter of seconds

GCDCA-hnRNPA1 NLS: glycochenodeoxycholic acid (GCDCA) conjugated to hnRNPA1 M9 NLS peptide (SEQ ID NO: 4) (SNFGPMKGGNFGGRSSGPY; also: glycochenodeoxycholic acid (GCDCA) conjugate, site not given here)
time after which hydrogel formation was induced ([1]; monomer, final concentration 6.67 mg/mL, complete DMEM containing human cells, room temperature and 37° C.): 30 min
hydrogel formation [1, 3]: formed a hydrogel
